Paper PMC10891854

Biological target: recombinant Pseudothermotoga hypogea iron-containing alcohol dehydrogenase (Pseudothermotoga hypogea)
Experiment: SEC; Superdex 200 (2.6 x 60 cm), 50 mM Tris-HCl pH 7.8, 100 mM KCl, 2 mL/min; native size worked out from the elution volume against standard proteins and compared with the subunit size by SDS-PAGE

stoichiometry N: 2
Substance: recombinant Pseudothermotoga hypogea iron-containing alcohol dehydrogenase (enzyme)
